To fix the notation:
B1: G2/mitotic-specific cyclin cig2 (Schizosaccharomyces pombe (strain ATCC 38366 / 972)), P36630 (parent)
chain: MALYSISKPVGSKINKHSYQDENTLVGKQALSKGTEKTKLSTNFEINLPRRTVLSDVSNVGKNNADEKDTKKAKRSFDESNLSTNEEADKPVESKFVKKLKVYSKNADPSVETLQKDRVSNVDDHLSSNPLMAEEYAPEIFEYIRKLDLKCLPNPKYMDQQKELTWKMREILNEWLVEIHSNFCLMPETLYLAVNIIDRFLSRRSCSLSKFQLTGITALLIASKYEEVMCPSIQNFVYMTDGAFTVEDVCVAERYMLNVLNFDLSYPSPLNFLRKISQAEGYDAQTRTLGKYLTEIYLFDHDLLRYPMSKIAAAAMYLSRRLLRRGPWTPKLVESSGGYEEHELKEIAYIMLHYHNKPLEHKAFFQKYSSKRFLKASIFVHQLVRQRYSVNRTDDDDLQSEPSSSLTNDGH

Experimental findings from IntAct's records for PubMed 11163211 are described below.

In the assay the parent is B1. Particulars: with cdk1_schpo cdc2, P04551.
Sequence of cdk1_schpo cdc2, P04551 (P04551 whole entry): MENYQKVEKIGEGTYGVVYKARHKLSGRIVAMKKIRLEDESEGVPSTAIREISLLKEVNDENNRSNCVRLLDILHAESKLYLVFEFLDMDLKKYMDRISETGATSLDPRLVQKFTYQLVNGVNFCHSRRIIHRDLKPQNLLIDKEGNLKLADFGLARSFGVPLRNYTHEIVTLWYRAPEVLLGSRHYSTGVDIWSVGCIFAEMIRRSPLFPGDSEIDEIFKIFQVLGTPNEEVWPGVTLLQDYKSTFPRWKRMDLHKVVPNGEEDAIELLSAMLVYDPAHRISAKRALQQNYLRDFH
As to R169A;E170A;I171A, the “effect of a mutation on the interaction” value is given as “disrupting interaction”.
